# Measured values reported in publication PMC2064523 (The Journal of Cell Biology, 2006).
# T1: Vh1 domain of human vinculin (residues 1–258) (human, UniProt P18206 1-258)
# T1 sequence (looked up): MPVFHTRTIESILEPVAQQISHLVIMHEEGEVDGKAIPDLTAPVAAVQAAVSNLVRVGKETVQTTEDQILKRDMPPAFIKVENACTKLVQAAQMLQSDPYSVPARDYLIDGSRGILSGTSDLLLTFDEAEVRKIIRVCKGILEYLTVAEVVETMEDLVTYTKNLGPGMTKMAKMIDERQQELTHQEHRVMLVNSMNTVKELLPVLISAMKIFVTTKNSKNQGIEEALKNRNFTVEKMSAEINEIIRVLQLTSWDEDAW
# Tests used:
# [1] = biological target: Vh1 domain of human vinculin (residues 1–258) (human) (UniProt P18206); experiment: SPR
# [2] = biological target: Human full-length vinculin (residues 1–1,066) (human) (UniProt P18206); experiment: SPR
# [3] = biological target: Vh1 domain of human vinculin (residues 1–258) (human) (UniProt P18206); experiment: native gel or EMSA
# [4] = biological target: T1, Vh1 domain of human vinculin (residues …); experiment: crystal structure
# [5] = biological target: T1, Vh1 domain of human vinculin (residues …); experiment: native gel or EMSA
# [6] = biological target: T1, Vh1 domain of human vinculin (residues …); experiment: SPR
molecule,measurement,setting,value
IpaA-VBS2-Y567I peptide,Kd,[1],15000 pM
"IpaA-Cterm (C-terminal domain of IpaA, residues 559–633) (from UniProt P18010 559-633) (domain or fragment)",Kd,[2],35.2 pM
same,Kd,[1],0.0062 pM
same,stoichiometry N,[3],1
"NNDITAENNNIYKAAKDVTTSLSKVLKNINKD (peptide, UniProt P18010 602-633, looked up) [IpaA residues 602–633 (containing the IpaA-VBS), peptide of the crystal structure]",binding result,[4],binds
"Vt domain of human vinculin (residues 879–1,066) (domain or fragment, UniProt P18206-2 879-1066, looked up) EEKDEEFPEQKAGEVINQPMMMAARQLHDEARKWSSKGNDIIAAAKRMALLMAEMSRLVRGGSGTKRALIQCAKDIAKASDEVTRLAKEVAKQCTDKRIRTNLLQVCERIPTISTQLKILSTVKATMLGRTNISDEESEQATEMLVHNAQNLMQSVKETVREAEAASIKIRTDAGFTLRWVRKTPWYQ",binding result,[5],binds
"NIYKAAKDVTTSLSKVLKNINKD (peptide, UniProt P18010 611-633, looked up) [IpaA-VBS peptide (IpaA residues 611–633)]",Kd,[6],110 pM
NIIKAAKDVTTSLSKVLKNINKD [IpaA-VBS-Y613I peptide],Kd,[6],270 pM
"AIYEKAKEVSSALSKVLSKIDDT (peptide, UniProt P18010 565-587, looked up) [IpaA-VBS2 peptide (IpaA residues 565–587)]",Kd,[6],6610 pM
AIYEAAKEVSSALSKVLSKIDDT [IpaA-VBS2-K569A peptide],Kd,[6],530 pM
